In publication PMC5686127, “Accessibility of the histone H3 tail in the nucleosome for binding of paired readers” (Nature Communications, 2017):

What was measured:
[1] = target: T1, CHD4 PHD1 (aa 362–417) (human, UniProt Q14839 362-417); experiment: other fluorescence titration; intrinsic tryptophan fluorescence; H3 (1-12) peptide added to 0.5-1 uM CHD4 PHD construct; 25 °C, pH 7.5, 75 mM NaCl, 3 mM DTT; apparent; conditions: both partners purified
T1 construct: CHD4, human, first PHD finger, aa 362-417; Cloned into pGex6p1; also called first PHD finger of CHD4; source: E. coli BL21 DE3 pLysS, purified (glutathione Sepharose 4B, GST cleaved with Prescission protease)

[2] = target: T2, CHD4 PHD2 (443–498) (human, UniProt Q14839 443-498); experiment: as above; conditions: both partners purified
T2 construct: CHD4, human, second PHD finger, aa 443-498; Cloned into pGex6p1; also called second PHD finger of CHD4; source: E. coli BL21 DE3 pLysS, purified (glutathione Sepharose 4B, GST cleaved with Prescission protease)
T2 sequence (Q14839 443-498): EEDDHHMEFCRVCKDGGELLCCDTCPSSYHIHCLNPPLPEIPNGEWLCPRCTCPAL

T1 sequence (Q14839 362-417): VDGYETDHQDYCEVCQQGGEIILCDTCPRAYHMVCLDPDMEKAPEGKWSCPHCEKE

B1: histone H3 peptide (aa 1–12) (peptide, UniProt P68431 2-13, looked up)
peptide: ARTKQTARKSTG
notes: histone H3, aa 1-12, unmodified; also called H3 (1–12) peptide; histone peptide; source: synthetic peptide (University of Colorado Denver Peptide Core Facility)
Kd [1]: 4 µM
Kd [2]: 430 nM
